Laboratory results: PMC5655547, “A General Strategy for Discovery of Inhibitors and Activators of RING and U-box E3 Ligases with Ubiquitin Variants” (Molecular Cell, 2017)

Columns and labels:
[1] = molecular target: T1, UbcH5B S22R C85K-Ub (stable conjugate) (UniProt P62837 1-147; P0CG48 1-76, S22R | C85K, stably conjugated to Ub (C85K-Ub)); test: SPR; Biacore T200, CM-5 chip, 25°C; GST-tagged E3 captured on anti-GST (1,000-2,000 RU); analyte in 25 mM Tris-HCl pH 7.6, 150 mM NaCl, 0.1 mg/ml BSA, 1 mM DTT, 0.005% Tween-20; steady-state affinity; GST alone subtracted; settings: both partners purified
T1 construct: UbcH5B with S22R and C85K; ubiquitin; mimic of UbcH5B~Ub; also called UbcH5B C85K S22R–Ub; source: made from purified Arabidopsis Uba1, UbcH5B C85K S22R and His-GST-Ub; purified (Ni2+ agarose, TEV cleavage, Source 15S, Superdex 75)

[2] = molecular target: the molecule itself; test: crystal structure; XR and UbV.XR mixed 1:1.2; sitting drop, 0.1 M NaHEPES pH 7.5, 1.4 M tri-Na citrate; 1.57 Å

Binder | Kd [1] | stoichiometry N [2]
GST-tagged RING domain of XIAP (XR, residues 434-C) (domain or fragment, UniProt P98170 434-497, looked up, XIAP RING domain, residues 434 to the C terminus; also called GST-XR; HisGST-XR; source: E. coli BL21(λDE3) GOLD, purified (glutathione agarose); not shown: His tag, N-terminal, kept) EISTEEQLRRLQEEKLCKICMDRNIAIVFVPCGHLVTCKQCAEAVDKCPMCYTVITFKQKIFMS | 12.2 µM | –
RING domain of XIAP (XR, residues 434-C), tag removed (domain or fragment, UniProt P98170 434-497, looked up, XIAP RING domain, residues 434 to the C terminus; dimeric RING in the crystal; not shown: His-GST, N-terminal, cleaved) EISTEEQLRRLQEEKLCKICMDRNIAIVFVPCGHLVTCKQCAEAVDKCPMCYTVITFKQKIFMS | – | 2
